This is an account of results in paper PMC8041291.

Data set [1] deals with Cterm (position 3, ---ECG-----). In words: potentiometry. To be noted: 25 °C; 0.1 M (4 mM HNO3 + 96 mM KNO3); none (4 mM HNO3 / 96 mM KNO3); metal-free peptide, reduced thiols, argon atmosphere, 0.5-1.5 mM ligand.
For data set [2], the system named is Glu1 (position 1, -----ECG---). In words: potentiometry. Conditions: 25 °C; 0.1 M (4 mM HNO3 + 96 mM KNO3); none (4 mM HNO3 / 96 mM KNO3); metal-free peptide, reduced thiols, argon atmosphere, 0.5-1.5 mM ligand.
Data set [3] deals with Nterm (position 1, -----ECG---). In words: potentiometry. To be noted: 25 °C; 0.1 M (4 mM HNO3 + 96 mM KNO3); none (4 mM HNO3 / 96 mM KNO3); metal-free peptide, reduced thiols, argon atmosphere, 0.5-1.5 mM ligand.
Data set [4] deals with Cys2 (position 2, ----ECG----). Nature of the data set: potentiometry. Conditions: 25 °C; 0.1 M (4 mM HNO3 + 96 mM KNO3); none (4 mM HNO3 / 96 mM KNO3); metal-free peptide, reduced thiols, argon atmosphere, 0.5-1.5 mM ligand.
Data set [5] has as its target Cys2. In words: NMR. Conditions: metal-free PC2; cited from earlier work.
In data set [6] the target is Cys1. In words: NMR. To be noted: metal-free PC2; cited from earlier work.
The target in data set [7] is Nterm1. In words: NMR. Conditions: metal-free PC2; cited from earlier work.
A further data set has as its target Glu2. Nature of the data set: potentiometry. Conditions: 25 °C; 0.1 M (4 mM HNO3 + 96 mM KNO3); none (4 mM HNO3 / 96 mM KNO3); metal-free peptide, reduced thiols, argon atmosphere, 0.5-1.5 mM ligand.
The target in the next data set is Cterm5. Nature of the data set: potentiometry. Conditions: 25 °C; 0.1 M (4 mM HNO3 + 96 mM KNO3); none (4 mM HNO3 / 96 mM KNO3); metal-free peptide, reduced thiols, argon atmosphere, 0.5-1.5 mM ligand.
Data set [8] concerns the target Cys2. Nature of the data set: potentiometry. Conditions: 25 °C; 0.1 M (4 mM HNO3 + 96 mM KNO3); none (4 mM HNO3 / 96 mM KNO3); metal-free peptide, reduced thiols, argon atmosphere, 0.5-1.5 mM ligand.
Data set [9] addresses Cys1. In words: potentiometry. Conditions: 25 °C; 0.1 M (4 mM HNO3 + 96 mM KNO3); none (4 mM HNO3 / 96 mM KNO3); metal-free peptide, reduced thiols, argon atmosphere, 0.5-1.5 mM ligand.
Data set [10] deals with Nterm1. In words: potentiometry. Conditions: 25 °C; 0.1 M (4 mM HNO3 + 96 mM KNO3); none (4 mM HNO3 / 96 mM KNO3); metal-free peptide, reduced thiols, argon atmosphere, 0.5-1.5 mM ligand.
The next data set concerns the target Glu1. In words: potentiometry. Conditions: 25 °C; 0.1 M (4 mM HNO3 + 96 mM KNO3); none (4 mM HNO3 / 96 mM KNO3); metal-free peptide, reduced thiols, argon atmosphere, 0.5-1.5 mM ligand.

As for “Glutathione (GSH, reduced) (not applicable (commercial reduced L-glutathione, Sigma-Aldrich))”, the pKa in data set [1] came to 3.64; in [2], 1.95; in data set [3], 9.65; in data set [4], 8.76.

Take ECECG: the pKa with Cys2 [5] is listed as 9.40; with Cys1 [6], 9.53; with Nterm1 [7], 10.01; with Glu2, 3.17; in the data set with Cterm5, 4.30; with Cys2 [8], 8.59. Also, the results for the pKa in the data set with Cys1 [9], in the data set with Nterm1 [10] and in the data set with Glu1 were 9.69, 10.25 and 2.43, respectively.
